According to patent publication US20220168396A1, “MULTI-RECEPTOR AGONIST AND MEDICAL USE THEREOF” (published 2022):
Square brackets hold non-standard residues; d marks the D form. Ends that are not written are not given here. Aib = CC(C)(N)C(=O)O

T1: human glucose-dependent insulinotropic peptide receptor (human, UniProt P48546)
T1 sequence: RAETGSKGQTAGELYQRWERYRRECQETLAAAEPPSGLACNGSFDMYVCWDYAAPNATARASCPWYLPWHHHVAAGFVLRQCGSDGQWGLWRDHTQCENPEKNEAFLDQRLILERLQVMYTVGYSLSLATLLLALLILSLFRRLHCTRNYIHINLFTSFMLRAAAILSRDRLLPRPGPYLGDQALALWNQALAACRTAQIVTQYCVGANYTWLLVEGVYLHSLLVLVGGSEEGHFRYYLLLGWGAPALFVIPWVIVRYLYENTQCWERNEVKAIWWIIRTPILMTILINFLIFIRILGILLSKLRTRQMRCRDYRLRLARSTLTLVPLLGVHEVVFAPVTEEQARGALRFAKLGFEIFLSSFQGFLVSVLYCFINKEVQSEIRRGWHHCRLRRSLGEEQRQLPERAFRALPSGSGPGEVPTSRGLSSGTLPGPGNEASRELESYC


What was measured:
[1] = target: T1, human glucose-dependent insulinotropic …; assay: cell-based or functional assay
[2] = target: human glucagon-like peptide-1 receptor (human, UniProt P43220); assay: cell-based or functional assay

Binder	Activity for human GIPR (EC50 nM), cAMP HTRF [1] [nM]	Activity for human GLP-1R (EC50 nM), cAMP HTRF [2] [nM]
Y[Aib]EGTFTSDVSSYLEEIHQKEFIAWLVRGGPSSGAPPPSK-NH2 (N-terminus assumed; SMILES CC[C@H](C)[C@H](NC(=O)[C@H](Cc1ccccc1)NC(=O)[C@H](CCC(=O)O)NC(=O)[C@H](CCCCN)NC(=O)[C@H](CCC(N)=O)NC(=O)[C@H](Cc1c[nH]cn1)NC(=O)[C@@H](NC(=O)[C@H](CCC(=O)O)NC(=O)[C@H](CCC(=O)O)NC(=O)[C@H](CC(C)C)NC(=O)[C@H](Cc1ccc(O)cc1)NC(=O)[C@H](CO)NC(=O)[C@H](CO)NC(=O)[C@@H](NC(=O)[C@H](CC(=O)O)NC(=O)[C@H](CO)NC(=O)[C@@H](NC(=O)[C@H](Cc1ccccc1)NC(=O)[C@@H](NC(=O)CNC(=O)[C@H](CCC(=O)O)NC(=O)C(C)(C)NC(=O)[C@@H](N)Cc1ccc(O)cc1)[C@@H](C)O)[C@@H](C)O)C(C)C)[C@@H](C)CC)C(=O)N[C@@H](C)C(=O)N[C@@H](Cc1c[nH]c2ccccc12)C(=O)N[C@@H](CC(C)C)C(=O)N[C@H](C(=O)N[C@@H](CCCNC(=N)N)C(=O)NCC(=O)NCC(=O)N1CCC[C@H]1C(=O)N[C@@H](CO)C(=O)N[C@@H](CO)C(=O)NCC(=O)N[C@@H](C)C(=O)N1CCC[C@H]1C(=O)N1CCC[C@H]1C(=O)N1CCC[C@H]1C(=O)N[C@@H](CO)C(=O)N[C@@H](CCCCN)C(N)=O)C(C)C) [Compound No. 4]	> 10	0.43
H[Aib]EGTFTSDVSSYLEEEAAKEFVNWLLAGGPSSGAPPPSK-NH2 (N-terminus assumed; SMILES CC(C)C[C@H](NC(=O)[C@H](CC(C)C)NC(=O)[C@H](Cc1c[nH]c2ccccc12)NC(=O)[C@H](CC(N)=O)NC(=O)[C@@H](NC(=O)[C@H](Cc1ccccc1)NC(=O)[C@H](CCC(=O)O)NC(=O)[C@H](CCCCN)NC(=O)[C@H](C)NC(=O)[C@H](C)NC(=O)[C@H](CCC(=O)O)NC(=O)[C@H](CCC(=O)O)NC(=O)[C@H](CCC(=O)O)NC(=O)[C@H](CC(C)C)NC(=O)[C@H](Cc1ccc(O)cc1)NC(=O)[C@H](CO)NC(=O)[C@H](CO)NC(=O)[C@@H](NC(=O)[C@H](CC(=O)O)NC(=O)[C@H](CO)NC(=O)[C@@H](NC(=O)[C@H](Cc1ccccc1)NC(=O)[C@@H](NC(=O)CNC(=O)[C@H](CCC(=O)O)NC(=O)C(C)(C)NC(=O)[C@@H](N)Cc1c[nH]cn1)[C@@H](C)O)[C@@H](C)O)C(C)C)C(C)C)C(=O)N[C@@H](C)C(=O)NCC(=O)NCC(=O)N1CCC[C@H]1C(=O)N[C@@H](CO)C(=O)N[C@@H](CO)C(=O)NCC(=O)N[C@@H](C)C(=O)N1CCC[C@H]1C(=O)N1CCC[C@H]1C(=O)N1CCC[C@H]1C(=O)N[C@@H](CO)C(=O)N[C@@H](CCCCN)C(N)=O) [Compound No. 5]	> 10	0.004
Y[Aib]EGTFTSDVSIYLEKEAAEEFVNWLLAGGPSSGAPPPSK-NH2 (N-terminus assumed; SMILES CC[C@H](C)[C@H](NC(=O)[C@H](CO)NC(=O)[C@@H](NC(=O)[C@H](CC(=O)O)NC(=O)[C@H](CO)NC(=O)[C@@H](NC(=O)[C@H](Cc1ccccc1)NC(=O)[C@@H](NC(=O)CNC(=O)[C@H](CCC(=O)O)NC(=O)C(C)(C)NC(=O)[C@@H](N)Cc1ccc(O)cc1)[C@@H](C)O)[C@@H](C)O)C(C)C)C(=O)N[C@@H](Cc1ccc(O)cc1)C(=O)N[C@@H](CC(C)C)C(=O)N[C@@H](CCC(=O)O)C(=O)N[C@@H](CCCCN)C(=O)N[C@@H](CCC(=O)O)C(=O)N[C@@H](C)C(=O)N[C@@H](C)C(=O)N[C@@H](CCC(=O)O)C(=O)N[C@@H](CCC(=O)O)C(=O)N[C@@H](Cc1ccccc1)C(=O)N[C@H](C(=O)N[C@@H](CC(N)=O)C(=O)N[C@@H](Cc1c[nH]c2ccccc12)C(=O)N[C@@H](CC(C)C)C(=O)N[C@@H](CC(C)C)C(=O)N[C@@H](C)C(=O)NCC(=O)NCC(=O)N1CCC[C@H]1C(=O)N[C@@H](CO)C(=O)N[C@@H](CO)C(=O)NCC(=O)N[C@@H](C)C(=O)N1CCC[C@H]1C(=O)N1CCC[C@H]1C(=O)N1CCC[C@H]1C(=O)N[C@@H](CO)C(=O)N[C@@H](CCCCN)C(N)=O)C(C)C) [Compound No. 8]	0.12	0.07
Y[Aib]EGTFTSDYSIYLEKEAAKEFVNWLLAGGPSSGAPPPSK-NH2 (N-terminus assumed; SMILES CC[C@H](C)[C@H](NC(=O)[C@H](CO)NC(=O)[C@H](Cc1ccc(O)cc1)NC(=O)[C@H](CC(=O)O)NC(=O)[C@H](CO)NC(=O)[C@@H](NC(=O)[C@H](Cc1ccccc1)NC(=O)[C@@H](NC(=O)CNC(=O)[C@H](CCC(=O)O)NC(=O)C(C)(C)NC(=O)[C@@H](N)Cc1ccc(O)cc1)[C@@H](C)O)[C@@H](C)O)C(=O)N[C@@H](Cc1ccc(O)cc1)C(=O)N[C@@H](CC(C)C)C(=O)N[C@@H](CCC(=O)O)C(=O)N[C@@H](CCCCN)C(=O)N[C@@H](CCC(=O)O)C(=O)N[C@@H](C)C(=O)N[C@@H](C)C(=O)N[C@@H](CCCCN)C(=O)N[C@@H](CCC(=O)O)C(=O)N[C@@H](Cc1ccccc1)C(=O)N[C@H](C(=O)N[C@@H](CC(N)=O)C(=O)N[C@@H](Cc1c[nH]c2ccccc12)C(=O)N[C@@H](CC(C)C)C(=O)N[C@@H](CC(C)C)C(=O)N[C@@H](C)C(=O)NCC(=O)NCC(=O)N1CCC[C@H]1C(=O)N[C@@H](CO)C(=O)N[C@@H](CO)C(=O)NCC(=O)N[C@@H](C)C(=O)N1CCC[C@H]1C(=O)N1CCC[C@H]1C(=O)N1CCC[C@H]1C(=O)N[C@@H](CO)C(=O)N[C@@H](CCCCN)C(N)=O)C(C)C) [Compound No. 9]	0.018	0.011
Y[Aib]EGTFTSDVSSYLEEEAAKEFVNWLLAGGPSSGAPPPSK-NH2 (N-terminus assumed; SMILES CC(C)C[C@H](NC(=O)[C@H](CC(C)C)NC(=O)[C@H](Cc1c[nH]c2ccccc12)NC(=O)[C@H](CC(N)=O)NC(=O)[C@@H](NC(=O)[C@H](Cc1ccccc1)NC(=O)[C@H](CCC(=O)O)NC(=O)[C@H](CCCCN)NC(=O)[C@H](C)NC(=O)[C@H](C)NC(=O)[C@H](CCC(=O)O)NC(=O)[C@H](CCC(=O)O)NC(=O)[C@H](CCC(=O)O)NC(=O)[C@H](CC(C)C)NC(=O)[C@H](Cc1ccc(O)cc1)NC(=O)[C@H](CO)NC(=O)[C@H](CO)NC(=O)[C@@H](NC(=O)[C@H](CC(=O)O)NC(=O)[C@H](CO)NC(=O)[C@@H](NC(=O)[C@H](Cc1ccccc1)NC(=O)[C@@H](NC(=O)CNC(=O)[C@H](CCC(=O)O)NC(=O)C(C)(C)NC(=O)[C@@H](N)Cc1ccc(O)cc1)[C@@H](C)O)[C@@H](C)O)C(C)C)C(C)C)C(=O)N[C@@H](C)C(=O)NCC(=O)NCC(=O)N1CCC[C@H]1C(=O)N[C@@H](CO)C(=O)N[C@@H](CO)C(=O)NCC(=O)N[C@@H](C)C(=O)N1CCC[C@H]1C(=O)N1CCC[C@H]1C(=O)N1CCC[C@H]1C(=O)N[C@@H](CO)C(=O)N[C@@H](CCCCN)C(N)=O) [Compound No. 6]	2.1	0.128
Y[Aib]EGTFTSDYSIYLEKEAAQEFVNWLLAGGPSSGAPPPSK-NH2 (N-terminus assumed; SMILES CC[C@H](C)[C@H](NC(=O)[C@H](CO)NC(=O)[C@H](Cc1ccc(O)cc1)NC(=O)[C@H](CC(=O)O)NC(=O)[C@H](CO)NC(=O)[C@@H](NC(=O)[C@H](Cc1ccccc1)NC(=O)[C@@H](NC(=O)CNC(=O)[C@H](CCC(=O)O)NC(=O)C(C)(C)NC(=O)[C@@H](N)Cc1ccc(O)cc1)[C@@H](C)O)[C@@H](C)O)C(=O)N[C@@H](Cc1ccc(O)cc1)C(=O)N[C@@H](CC(C)C)C(=O)N[C@@H](CCC(=O)O)C(=O)N[C@@H](CCCCN)C(=O)N[C@@H](CCC(=O)O)C(=O)N[C@@H](C)C(=O)N[C@@H](C)C(=O)N[C@@H](CCC(N)=O)C(=O)N[C@@H](CCC(=O)O)C(=O)N[C@@H](Cc1ccccc1)C(=O)N[C@H](C(=O)N[C@@H](CC(N)=O)C(=O)N[C@@H](Cc1c[nH]c2ccccc12)C(=O)N[C@@H](CC(C)C)C(=O)N[C@@H](CC(C)C)C(=O)N[C@@H](C)C(=O)NCC(=O)NCC(=O)N1CCC[C@H]1C(=O)N[C@@H](CO)C(=O)N[C@@H](CO)C(=O)NCC(=O)N[C@@H](C)C(=O)N1CCC[C@H]1C(=O)N1CCC[C@H]1C(=O)N1CCC[C@H]1C(=O)N[C@@H](CO)C(=O)N[C@@H](CCCCN)C(N)=O)C(C)C) [Compound No. 10]	0.006	0.097
